Earlier results on one substance are cited in article PMC11231610, “Fatty acid binding to the human transport proteins FABP3, FABP4, and FABP5 from a Ligand’s perspective” (The Journal of Biological Chemistry, 2024).

Usually Kd stands for the equilibrium constant for the complex coming apart.

The target of the series is Cgi-58 (Mus musculus) (UniProt Q9DBL9). Description: MST.
Sequence of Cgi-58 (Mus musculus) (Q9DBL9 whole entry): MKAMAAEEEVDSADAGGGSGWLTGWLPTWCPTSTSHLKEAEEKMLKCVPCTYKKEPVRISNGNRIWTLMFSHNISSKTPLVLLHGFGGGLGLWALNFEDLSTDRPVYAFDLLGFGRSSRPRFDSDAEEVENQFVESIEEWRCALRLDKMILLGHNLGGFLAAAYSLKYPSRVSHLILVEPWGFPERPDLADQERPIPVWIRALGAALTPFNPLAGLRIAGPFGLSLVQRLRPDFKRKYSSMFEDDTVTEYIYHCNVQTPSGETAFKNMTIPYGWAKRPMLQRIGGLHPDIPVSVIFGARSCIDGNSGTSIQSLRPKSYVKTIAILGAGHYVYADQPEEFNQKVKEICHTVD

Sequence of FABP4 (P04117 2-132): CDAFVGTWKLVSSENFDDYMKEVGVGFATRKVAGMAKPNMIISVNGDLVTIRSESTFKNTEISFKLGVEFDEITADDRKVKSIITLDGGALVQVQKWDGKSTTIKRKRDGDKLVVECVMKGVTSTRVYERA

With FABP4 (from UniProt P04117), the Kd is 192 µM.
